Consider one molecule from patent publication US20090311253A1 (AbbVie / Abbott, published 2009).

For assay [1], the target named is T1, Recombinant Human IL-4 (human, UniProt P05112 25-153).
T1 sequence (looked up): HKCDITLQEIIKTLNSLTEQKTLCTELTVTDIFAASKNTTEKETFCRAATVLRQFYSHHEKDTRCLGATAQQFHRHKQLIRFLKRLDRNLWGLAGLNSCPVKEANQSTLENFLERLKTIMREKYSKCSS
Briefly: cell-based or functional assay.

Assay [2] concerns the target T1, Recombinant Human IL-4. Briefly: Biacore SPR.
In assay [3] the target is T2, Recombinant Human IL-13 (human, UniProt P35225 35-146, limits assumed). As to the kind of experiment: Biacore SPR. (In general: SPR reads the build-up and loss of mass on a sensor chip optically.)
For assay [4], the target named is T1, Recombinant Human IL-4. Briefly: direct bind ELISA. A general note: An ELISA detects its analyte on a solid surface through an enzyme-linked reagent.
Assay [5] concerns the target T2, Recombinant Human IL-13. As to the kind of experiment: direct bind ELISA.
In assay [6] the target is T2, Recombinant Human IL-13. As to the kind of experiment: cell-based or functional assay.

T2 sequence (P35225 35-146 limits assumed): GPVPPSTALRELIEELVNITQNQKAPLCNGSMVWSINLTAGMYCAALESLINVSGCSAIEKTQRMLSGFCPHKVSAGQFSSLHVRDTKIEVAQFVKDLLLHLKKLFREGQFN

B1: DVD267 (bispecific antibody, human IgG1, kappa)
heavy: not shown
light: DIQMTQSPSSLSASVGDRVTISCRASQDIRNYLNWYQQKPGKAPKLLIFYTSKLHSGVPSRFSGSGSGTDYTLTISSLQPEDIATYYCQQGLTPPLTFGGGTKVEIKRTVAAPDIVLTQSPSSLSASVGDRVTITCKASQSVDYDGDSYMNWYQQKPGKAPKLLIYAASNLESGIPSRFSGSGSGTDFTFTISSLQPEDIATYYCQQSNEDPPTFGQGTKVEIKRTVAAPSVFIFPPSDEQLKSGTASVVCLLNNFYPREAKVQWKVDNALQSGNSQESVTEQDSKDSTYSLSSTLTLSKADYEKHKVYACEVTHQGLSSPVTKSFNRGEC
notes: outer AB051, inner AB027; vectors V1, V2
Usually Kd stands for a measure of binding affinity in units of concentration. Usually koff stands for a measure of how fast the partners let go of each other. A word on the kon: it is the rate constant with which the complex forms. A word on the EC50: it is the concentration needed to bring the measured effect to its halfway point. On to B1, for which the “IL-4 Neutralization Assay EC50 (A549 cells, hTARC)” value with Recombinant Human IL-4 [1] was determined as 0.09 nM. In the assay with Recombinant Human IL-4 [2], the Kd came to 4.86 nM, the koff worked out at 0.000343 s⁻¹ and the kon is 70600 M⁻¹ s⁻¹. Also, in the assay with Recombinant Human IL-13 [3], the Kd came to 0.0497 nM, the koff was 8.69e-05 s⁻¹ and the kon turned out to be 1.75e+06 M⁻¹ s⁻¹. Also, in the assay with Recombinant Human IL-4 [4], the EC50 amounted to 748 nM. Also, the EC50 with Recombinant Human IL-13 [5] is 5.89 nM. Moreover, in the assay with Recombinant Human IL-13 [6], the “IL-13 Neutralization Assay EC50 (A549 cells, hTARC)” value was 0.09 nM.
